Test results from the supplement of paper PMC9170038.

Test system: MS2 coat protein
Assay: apparent KD of MS2 coat protein; designed switch direction (-1 OFF switch, 1 ON switch): -1; higher = weaker reporter binding
Method in brief: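 The apparent KD reported per design is the median over clusters of curve fits to normalised cluster fluorescence. The RNA switches were transcribed on Illumina chips by stalled E. coli RNA polymerase. SNAP-549-labelled MS2 coat protein was titrated from 0.7 or 1.5 nM, doubling up to 3 µM, in Tris-HCl pH 7.5 buffer containing KCl, MgCl2, BSA, DTT, tRNA and Tween-20, with no input, 200 uM small-molecule ligand, or an oligonucleotide input.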

[1] = Eterna round: R95, input ligand: FMN 200 uM
[2] = Eterna round: R95, input ligand: microRNA oligo, concentration not stated
[3] = Eterna round: R95, input ligand: none
[4] = input ligand: microRNA oligo, concentration not stated

| Sequence | apparent KD of MS2 coat protein [1] [nM] | apparent KD of MS2 coat protein [2] [nM] | apparent KD of MS2 coat protein [3] [nM] | apparent KD of MS2 coat protein (input ligand: FMN 200 uM) [nM] | apparent KD of MS2 coat protein (input ligand: none) [nM] | apparent KD of MS2 coat protein [4] [nM] |
| --- | --- | --- | --- | --- | --- | --- |
| GUAGAGUAAGGAUAUGCAGAAUAGGAUAGAAUGGUUAGAAUGUAGAAGGUACAUGAGGAUCACCCAUGUAAUGU [Excluse me!!!! 10 - Jieux - Exclusion 4] (puzzle: Exclusion 4) | 20.8 | 22.7 | 22.7 | – | – | – |
| AUAAUAAAGGAGGAUAUCGUAUCGGAAACGAUACGAGAAGGUCUAACAUGAGGAUCACCCAUGUUCCUCAAUAA [Mat - Exclusion 6 - Eli Mod - D48] (puzzle: Exclusion 6) | 54.5 | 35.9 | 36.1 | – | – | – |
| UGAAAGGUAGGAUAUACGAAGAAAAAGGGUAGAAUAAUAACACAUGAGGAUCACCCAUGUAGAAGGACCAAAGG [Mat - Exclusion 2 - Mod of my Tesla design - D9] (puzzle: Exclusion 2) | 70.1 | 23.2 | 25.2 | – | – | – |
| GUUCUGUCAGGAUAUCAAUCCGCCUGUGAUACGCAGGCGGCUGAGAAGGGACAUGAGGAUCACCCAUGUAAAGA [jl-ex4-4.23 ViennaUCT mod] (Eterna round: R97, puzzle: Exclusion 4) | – | – | – | 74 | 41.2 | – |
| UUUAAGGCUGAGGAUAUGUGGUCCGCCAAAGACAUAGAAGGUAGCACAUGAGGAUCACCCAUGUCACGAAAAGU [Eternabot (L1) Solution 81] (Eterna round: R97, puzzle: Exclusion 6) | – | – | – | 54.3 | 52.7 | – |
| GCAGCAAACUCUAUUAAAACCACAUGAGGAUCACCCAUGUCUCAGGAUAUGGUCUGGAUUACAGGCCAGAAGGGAGAAAGCUGC [Eli exng3 - 054] (Eterna round: R96, puzzle: Exclusion NG 3) | – | – | – | 15 | 15.1 | 10.9 |
| CUGGUCCGAGGAUAUAUUAAGUGAAACAUGAGGAUCACCCAUGUUAUUUGAUGGAUGUAAAUAGAAGGCGGACUAG [JL-ex5-3.13] (puzzle: Exclusion 5) | 23.8 | 33.1 | 49.1 | – | – | – |
| GCCGAUUAAGUGAGGAUAUACCUAUGGAUACAUAGGUAGAAGGCACAUGAGGAUCACCCAUGUAUCCUAUCGGC [Eli bmx4 4.27] (Eterna round: R97, puzzle: Brourd's mod of Exclusion 4) | – | – | – | 517 | 59.8 | – |
| GAGGAACAUGAGGAUCACCCAUGUGAGGAUAUGCAUAGUGAGCUAGUAGACGUUUAUUGCAGAAGGUACACUGA [JR_Exclu1_Sub080] (puzzle: Exclusion 1) | – | 25.3 | – | – | – | – |
| UGUUGUCGCGUAGGAUAUGAGGAUCACCCAUAGAAGGAUAUCGAAAGAGAAGGUCUGAGGAUUACCCAGAAGGACGGGACAACU [pwkr exNG2 2xF5 2xFMN.14] (Eterna round: R96, puzzle: Exclusion NG 2) | – | – | – | 682 | 151 | 160 |
| CGGGACCGAGGAUAUACAUGUGGACUCGAGUUGACGUUGGGACAUGAGGAUCACCCAUGUAGAAGGCGGAUCUU [Eternabot (L2) Solution 57] (Eterna round: R97, puzzle: Exclusion 2) | – | – | – | 270 | 741 | – |
| ACAAGAAUUUUGCUCGUAAAGUAGAAACGCGAGAGCGGGACAUGAGGAUCACCCAUGUAAAGGCAGUUGGUGGAGAU [JR_SV3TOV2_Sub028] (puzzle: Sensor v3, turn-off variant 2) | 39.7 | 53.2 | 48.7 | – | – | – |
| GCUUGUAGAGGAUAUACAAGGGCCCACGCGGCGAGAGCCGCACAUGAGGAUCACCCAUGUAGAAGGCUACUAUA [JL-ex2-4.23 ViennaUCT mod] (Eterna round: R97, puzzle: Exclusion 2) | – | – | – | 125 | 363 | – |
| AAGAGGUCAGGAUAUACGGGAAGAGGGAGAAGUAGAGGGUAACAUGAGGAUCACCCAUGUAGAAGGGACUAAGA [JR_Exclu2_Sub073] (puzzle: Exclusion 2) | 26.7 | 26.4 | 28.1 | – | – | – |
| AGAAAGCAAGGAUAUACAAGGAAACGACGGAAAGUAGAGAGACAUGAGGAUCACCCAUGUAGAAGGUGCGAGAA [JR_Exclu2_Sub032] (puzzle: Exclusion 2) | 33.8 | 28.7 | 26.5 | – | – | – |
| GAGUGCUAAGGAUAUACAUGAGGAUCACCCAUGUGCUUCAGCUAGGAGACUAGCAUUGGUAGAAGGUAGUACUC [Mod of lroppy 2 - Jieux - Exclusion 3] (Eterna round: R97, puzzle: Exclusion 3) | – | – | – | 60.3 | 14.7 | – |
| CCUGGGUCAUCGCCCAGGAACAACAUGAGGAUCACCCAUGUCUAGGAUAUCCACCAGUCAAUAAAGGAGAAGGAGACGGUGGUU [Enusonor] (Eterna round: R96, puzzle: Exclusion NG 3) | – | – | – | 22.9 | 21.2 | 14.6 |

| Sequence | apparent KD of MS2 coat protein [1] [nM] | apparent KD of MS2 coat protein [2] [nM] | apparent KD of MS2 coat protein [3] [nM] | apparent KD of MS2 coat protein (input ligand: FMN 200 uM) [nM] | apparent KD of MS2 coat protein (input ligand: none) [nM] | apparent KD of MS2 coat protein [4] [nM] |
| --- | --- | --- | --- | --- | --- | --- |
| CUUCACCCACCUGAGCUCACCCACAUACCUGCUCAGGUGACAUGAGGAUCACCCAUGUUUUUUGCCCGUCUUAUCUU [Soteonge] (puzzle: Sensor v3, turn-off variant 2) | 39.4 | 229 | 45.6 | – | – | – |
| UUUUUUGUUGUGAGGAUAUCGUUGUUGUUGUGGAUCGAGAAGGCACAUGAGGAUCACCCAUGUUUGUUGUGGUU [JR_BMOE4_Sub086] (puzzle: Brourd's mod of Exclusion 4) | – | 83.7 | – | – | – | – |
| AGUACUAACACGAAAGUGUUAGUACUAUAAGCUUGUGUUACAUGAGGAUCACCCAUGUCCUCAUAAGCUCGUCUUAA [Mat - Sensor v3 - Turn-off var 2 - D63] (puzzle: Sensor v3, turn-off variant 2) | 35.2 | 437 | 41 | – | – | – |
| GUAAUUAAUGUAGGAUAUGCAAGGCGAACCUAAGCAGAAGGACAUGUGGAUCACCCAUGUAAUGCGGUCUGCGUACAGAUCGCU [salish99_ex1_NG1_002] (Eterna round: R96, puzzle: Exclusion NG 1) | – | – | – | 507 | 60.2 | 103 |
| AAGAAACAUGAGGAUCACCCAUGUGAGGAUAUGACGAAGAAAAGAAAAGAAAGAAGAGUCAGAAGGCACAAAGG [salish99-ex1_r3_067] (puzzle: Exclusion 1) | 132 | 100 | 109 | – | – | – |
| UACAUGAGGAUCACCCAUGUUUUGUCGUGUAUGGUAUUUAUCUAGGAUAUCAAUCUAUUAAUUUAUGAGAAGGAGAAUAUUAAU [JMF's solution 52] (Eterna round: R96, puzzle: Exclusion NG 3) | – | – | – | – | – | 28.8 |
| AAUGGAUGUGUUAGGAUAUCCGGAGGGAAACCUCCGGAGAAGGAACAUGAGGAUCACCCAUGUAUGUAAAAUAC [AK-MS2ROC-r4-Bmoexclusion4-3] (Eterna round: R97, puzzle: Brourd's mod of Exclusion 4) | – | – | – | 449 | 111 | – |
| UUCCUCGUUGUGAGGAUAUCGUCCGUGUUUUGUUACGAGAAGGCACAUGAGGAUCACCCAUGUUACUUGAUGUU [JR_BMOE4_Sub073] (Eterna round: R96, puzzle: Brourd's mod of Exclusion 4) | – | – | – | 150 | 23.3 | 19 |
| CUCCGGCGUGUAGGAUAUGGUUCCGUUUAGGAUCCAGAAGGACAUGAGGAUCACCCAUGUACAUGUCGUCGGUCGUCACCGGGC [salish99_ExNG1_r04_212] (Eterna round: R96, puzzle: Exclusion NG 1) | – | – | – | 110 | 28.5 | 24.5 |
| ACAAGCUUUUUGCUCGAAGAGUAGAAACGUGAGAGCGAAACAUGAGGAUCACCCAUGUAAAGGCAGUAGGUGAAGAU [JR_SV3TOV2_Sub024] (puzzle: Sensor v3, turn-off variant 2) | 39.8 | 57.4 | 57.2 | – | – | – |
| CCCUCACUUGAGGAUCACCCAAGUCAGGAUAUCUCACCCAUCCUACGGGACGGGUCACAGAGAAGGGACUAAAA [Isdius] (Eterna round: R97, puzzle: Exclusion 1) | – | – | – | 37.3 | 20 | – |
| GUUUCACAUGAGGAUCACCCAUGUGAGGAUAUGUUUUUAAAAGCAAUAGUUUUUGAAAACAGAAGGCGCGUGAU [JR_Exc1_Sub008] (Eterna round: R97, puzzle: Exclusion 1) | – | – | – | 71.6 | 60.5 | – |
| AAGCCACAUGAGGAUCACCCAUGUUAGGAUAUACGCAUGCAGACACGCACGGAUGCAAGUAGAAGGAACCAUGC [Design #5] (Eterna round: R97, puzzle: Exclusion 1) | – | – | – | 16.8 | 15.9 | – |
| AUAAUUUAAGUCAGGAUAUACCUAUGGAAACAUAGGUAGAAGGGACAUGAGGAUCACCCAUGUUUAUAUACAUA [Fiskers BMX 4 - 4] (puzzle: Brourd's mod of Exclusion 4) | 29.8 | 16.8 | 15.1 | – | – | – |
| CAAACCUCAGGAUAUCGAGACUCGGACAUGAGGAUCACCCAUGUGAGGCUCGUGAGUCCACGAGAAGGGAGGAGCA [Eternabot (Original) Solution 38] (Eterna round: R97, puzzle: Exclusion 5) | – | – | – | 26.1 | 17.4 | – |
| GUAGCUUCGGCUACUACAAGCUUUUUGCUCGUCUUAUUAACAUGAGGAUCACCCAUGUACAAGAGACCUCAUGUAUU [Sensor v3 - turn-off variant 2 - 13] (puzzle: Sensor v3, turn-off variant 2) | 90.4 | 15.6 | 146 | – | – | – |
